The text below walks through data of publication PMC2912413.

The target in the assay is alternative Replication Protein A complex (RPA1, RPA4 and RPA3) (human) (UniProt P27694). In words: ELISA.
alternative Replication Protein A complex (RPA1, RPA4 and RPA3) (human), sequence (P27694 whole entry, chain 1 of 3): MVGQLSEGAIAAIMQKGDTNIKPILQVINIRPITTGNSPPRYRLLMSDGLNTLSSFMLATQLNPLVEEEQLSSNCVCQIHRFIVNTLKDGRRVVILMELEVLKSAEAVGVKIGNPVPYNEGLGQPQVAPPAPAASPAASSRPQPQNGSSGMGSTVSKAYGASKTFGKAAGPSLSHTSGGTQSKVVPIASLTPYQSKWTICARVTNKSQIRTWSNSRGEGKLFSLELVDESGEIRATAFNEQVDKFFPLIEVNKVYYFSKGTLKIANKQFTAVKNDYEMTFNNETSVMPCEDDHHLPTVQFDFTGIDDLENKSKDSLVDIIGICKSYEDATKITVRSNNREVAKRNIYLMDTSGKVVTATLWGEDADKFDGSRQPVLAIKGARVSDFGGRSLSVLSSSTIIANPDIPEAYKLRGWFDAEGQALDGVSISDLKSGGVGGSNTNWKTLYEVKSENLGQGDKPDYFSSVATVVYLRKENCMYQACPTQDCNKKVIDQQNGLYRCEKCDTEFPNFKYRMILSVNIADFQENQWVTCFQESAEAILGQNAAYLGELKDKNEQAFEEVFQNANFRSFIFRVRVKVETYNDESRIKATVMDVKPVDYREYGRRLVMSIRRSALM
alternative Replication Protein A complex (RPA1, RPA4 and RPA3) (human), sequence (Q13156 whole entry, chain 2 of 3, further chain): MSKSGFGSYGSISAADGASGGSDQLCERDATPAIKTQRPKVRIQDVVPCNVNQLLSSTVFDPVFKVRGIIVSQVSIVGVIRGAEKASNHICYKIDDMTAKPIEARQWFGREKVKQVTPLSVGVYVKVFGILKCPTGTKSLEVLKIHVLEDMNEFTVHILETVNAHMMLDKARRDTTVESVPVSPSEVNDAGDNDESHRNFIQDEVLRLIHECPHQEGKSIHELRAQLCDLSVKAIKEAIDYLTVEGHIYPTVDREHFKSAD
alternative Replication Protein A complex (RPA1, RPA4 and RPA3) (human), sequence (P35244 whole entry, chain 3 of 3, further chain): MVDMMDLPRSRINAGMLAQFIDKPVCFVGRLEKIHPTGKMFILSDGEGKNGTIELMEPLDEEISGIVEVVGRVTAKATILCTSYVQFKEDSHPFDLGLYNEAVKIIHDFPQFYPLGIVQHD

“human DNA polymerase α/primase complex (from UniProt P09884 1-1462; Q14181 1-598; P49643 1-509; P49642 1-420)” came in with a percent decrease of the ELISA interaction compared to RPA of 75%.
